From patent US20030181408A1, “Genes essential for microbial proliferation and antisense thereto” (priority 1999, published 2003)
In brackets after ≈: the same amount, converted by molar mass.

B1: EcXA083: antisense clone insert, E. coli gene hrpB (nucleic acid, listed as Escherichia coli)
DNA: CGGCTTAGCGCGTCGTTGGCATCGAGCATCGCTCCCATGCCGTTTGCCAGTTGATAGCGTCCATCTTGCC
B2: EcXA062: antisense clone insert, E. coli gene rep (nucleic acid, listed as Escherichia coli)
DNA: CGCGTGGAGAGTCATCAGTTGCACCTGATCCAGCTCTTCTTCACTCTCACCACGCTCNATCATGTCGCGCAAAGTAAAGCGCGTCACCACCTGGGTGAGCGTCATCGGCTCATCCAGTTCACTGCCTTCCAGCATCTCCGTCATCCAGCTAAACAGTTGGTTGACGTTCTTCATGCGCATTTCGGCGGCTTTCGGGCTGGGCGATGTTTCGTACAGCCAGGATTCATAATCCATGCCATGGATCAGATCACGCACCGCGGCAATCGGCTCCCGCTCCGCCAGACGCTGGATTTCTGCCAACCAGTGAGTGAAGCGGGTCAATGCTTCA
modifications: misc_feature (1)...(328): n = A,T,C or G
notes: antisense clone insert, E. coli gene rep

Columns and labels:
[1] = test system: E. coli transformed with an IPTG-inducible plasmid containing antisense clones; assay: Cell based assay: antibiotic sensitivity of E. coli expressing sublethal antisense RNA (Example 9)
Source text: The effectiveness of the above cell based assay was validated using constructs expressing antisense RNA to the proliferation required E. coli genes rplL, rplJ, and rplW encoding ribosomal proteins L7/L12, L10 and L23 respectively. These proteins are part of the protein synthesis apparatus of the cell and as such are required for proliferation. These constructs were used to test the effect of antisense expression on cell sensitivity to antibiotics known to bind to the ribosome and thereby inhibit protein synthesis. Constructs expressing antisense RNA to several other genes (elaD, visC, yohh, and atpE/B), the products of which are not involved in protein synthesis were used for comparison.
First pLex5BA (Krause et al., J. Mol. Biol. 274: 365 (1997), the disclosure of which is incorporated herein by reference in its entirety) expression vectors containing antisense constructs to either rplW or to elaD were introduced into separate E. coli cell populations. Vector introduction is a technique well known to those of ordinary skill in the art. The expression vectors of this example contain IPTG inducible promoters that drive the expression of the antisense RNA in the presence of the inducer. However, those skilled in the art will appreciate that other inducible promoters may also be used. Suitable expression vectors are also well known in the art. The E. coli antisense clones encoding ribosomal proteins L7/L12, L10 and L23 were used to test the effect of antisense expression on cell sensitivity to the antibiotics known to bind to these proteins. […]
The cell populations were exposed to a range of IPTG concentrations in liquid medium to obtain the growth inhibitory dose curve for each clone (FIG. 1). First, seed cultures were grown to a particular turbidity that is measured by the optical density (OD) of the growth solution. […] The cells were grown for up to 15 hours and the extent of growth was determined by measuring the optical density of the cultures at 600 nm. […]

[2] = test system: bacterial strain engineered for expression of an antisense against rplL and rplJ (50S ribosomal subunit proteins); assay: microbe, parasite or virus in culture; format: cell-based, E. coli; settings: read-out: IC50 (+I)
Procedure: Antibiotics of various chemical classes and modes of action were purchased from Sigma Chemicals (St. Louis, Mo.). Stock solutions were prepared by dissolving each antibiotic in an appropriate aqueous solution based on information provided by the manufacturer. The final working solution of each antibiotic contained no more than 0.2% (w/v) of any organic solvent. To determine their potency against a bacterial strain engineered for expression of an antisense against a proliferation-required gene encoding 50S ribosomal protein, each antibiotic was serially diluted two or three fold in growth medium supplemented with the appropriate antibiotic for maintenance of the anti-sense construct. At least ten dilutions were prepared for each antibiotic. 25 μL aliquots of each dilution were transferred to discrete wells of a 384-well microplate (the assay plate) using a multi-channel pipette. Quadruplicate wells were used for each dilution of an antibiotic under each treatment condition (plus and minus inducer). Each assay plate contained twenty wells for cell growth controls (growth media replacing antibiotic), ten wells for each treatment (plus and minus inducer, in this example IPTG). Assay plates were usually divided into the two treatments: half the plate containing induced cells and an appropriate concentrations of inducer (in this example IPTG) to maintain the state of induction, the other half containing non-induced cells in the absence of IPTG.
Cells for the assay were prepared as follows. Bacterial cells containing a construct, from which expression of antisense nucleic acid against rplL and rplJ, which encode proliferation-required 50S ribosomal subunit proteins, is inducible in the presence of IPTG, were grown into exponential growth (OD600 0.2 to 0.3) and then diluted 1:100 into fresh media containing either 400 μM or 0 μM inducer (IPTG). These cultures were incubated at 37° C. for 2.5 hr. After a 2.5 hr incubation, induced and non-induced cells were respectively diluted into an assay medium at a final OD600 value of 0.0004. The medium contained an appropriate concentration of the antibiotic for the maintenance of the anti-sense construct. In addition, the medium used to dilute induced cells was supplemented with 800 μM IPTG so that addition to the assay plate would result in a final IPTG concentration of 400 μM. Induced and non-induced cell suspensions were dispensed (25 μl/well) into the appropriate wells of the assay plate as discussed previously. The plate was then loaded into a plate reader, incubated at constant temperature, and cell growth was monitored in each well by the measurement of light scattering at 595 nm. Growth was monitored every 5 minutes until the cell culture attained a stationary growth phase. For each concentration of antibiotic, a percentage inhibition of growth was calculated at the time point corresponding to mid-exponential growth for the associated control wells (no antibiotic, plus or minus IPTG). For each antibiotic and condition (plus or minus IPTG), a plot of percent inhibition versus log of antibiotic concentration was generated and the IC50 determined.

E. coli = assay: Inhibition of E. coli proliferation after IPTG induction of antisense clones (liquid growth curves, dilution spotting on plates); format: cell-based, Escherichia coli; settings: 1 mM IPTG
Procedure: (§1) To study the effects of transcriptional induction in liquid medium, growth curves were carried out by back diluting cultures 1:200 into fresh media with or without 1 mM IPTG and measuring the OD450 every 30 minutes (min). To study the effects of transcriptional induction on solid medium, 10^2, 10^3, 10^4, 10^5, 10^6, 10^7 and 10^8 fold dilutions of overnight cultures were prepared. Aliquots of from 0.5 to 3 μl of these dilutions were spotted on selective agar plates with or without 1 mM IPTG. After overnight incubation, the plates were compared to assess the sensitivity of the clones to IPTG.
(§2) Molecule No. EcXA059, encoding a portion of the ypjA gene of Escherichia coli, was either transformed directly into Enterobacter cloacae, Salmonella typhimurium and/or Klebsiella pneumoniae or subdloned into an expression vector functional in these species and the subclones transformed into these organisms. Suitable expression vectors are well known in the art. These expression vectors were introduced into Enterobacter cloacae, Salmonella typhimurium and/or Klebsiella pneumoniae cells that were then assayed for growth inhibition according to the method of Example 1. After growth in liquid culture, cells were plated at various serial dilutions and a score determined by calculating the log difference in growth for INDUCED vs. UNINDUCED antisense RNA expression as determined by the maximum 10 fold dilution at which a colony was observed. If there was no effect of antisense RNA expression in one organism, the clone is given a score of zero “0” in that organism. In contrast, a score of “8” means that 10^8 times more cells were required to observe a colony formed on the induced state than in the non-induced state under the conditions used and in that organism.

Enterobacter cloacae = assay: Growth inhibition by IPTG-induced antisense RNA expression in Enterobacter cloacae (induced vs. uninduced serial dilution plating); format: cell-based
Procedure: as §1, §2
(§3) Expression vectors which inhibited growth of E. coli upon induction of antisense RNA expression with IPTG were transformed directly into Enterobacter cloacae, Klebsiella pneumonia or Salmonella typhimurium. The transformed cells were then assayed for growth inhibition according to the method of Example 1. After growth in liquid culture, cells were plated at various serial dilutions and a score determined by calculating the log difference in growth for INDUCED vs. UNINDUCED antisense RNA expression as determined by the maximum 10 fold dilution at which a colony was observed. If there was no effect of antisense RNA expression in a microorganism, the clone is minus in Table V below. In contrast, a positive in Table V below means that at least 10 fold more cells were required to observe a colony on the induced plate than on the non-induced plate under the conditions used and in that microorganism.

Salmonella typhimurium = assay: Growth inhibition by IPTG-induced antisense RNA expression in Salmonella typhimurium (induced vs. uninduced serial dilution plating); format: cell-based
Procedure: as §1, §2, §3

Klebsiella pneumoniae = assay: Growth inhibition by IPTG-induced antisense RNA expression in Klebsiella pneumoniae (induced vs. uninduced serial dilution plating); format: cell-based
Procedure: as §1, §2, §3

Molecule | sensitivity to antibiotics which do not inhibit protein synthesis ([1]; clone expressing antisense to rplL and rplJ) | IC50 [2] | sensitivity to tetracycline (tetracycline IC50 with IPTG vs. without IPTG) ([1]; cells expressing antisense to genes not involved in protein synthesis (atpB/E, visC, elaD, yohH)) | sensitivity to tetracycline (tetracycline IC50 with IPTG vs. without IPTG) ([1]; cells with reduced levels of L7/L12 (rplL, rplJ) or L23 (rplW), IPTG giving 50% growth inhibition) | effect of antisense expression on E. coli growth after IPTG induction (E. coli) | Sensitivity of E. cloacae to antisense nucleic acid (growth inhibition, induced vs. uninduced) (Enterobacter cloacae) | Sensitivity of S. typhimurium to antisense nucleic acid (growth inhibition, induced vs. uninduced) (Salmonella typhimurium) | Sensitivity of K. pneumoniae to antisense nucleic acid (growth inhibition, induced vs. uninduced) (Klebsiella pneumoniae)
CC1COc2c(N3CCN(C)CC3)c(F)cc3c(=O)c(C(=O)O)cn1c23 (stereo not drawn) [Ofloxacin] | does not show increased sensitivity | 0.0458 µg/mL (≈ 0.127 µM) |  |  |  |  |  | 
CN(C)[C@@H]1C(O)=C(C(N)=O)C(=O)[C@@]2(O)C(O)=C3C(=O)c4c(O)cccc4[C@@](C)(O)[C@H]3C[C@@H]12 [Tetracycline] |  |  | did not show the same increased sensitivity | increased sensitivity |  |  |  | 
B1 |  |  |  |  | reduction in cell growth | − | − | −
B2 |  |  |  |  | reduction in cell growth | − | − | −
